Measurements published in patent US7122633 (Pfizer, dated 2006).

Biological target: T1, NKSF larger subunit, 40 kD (human, UniProt P29460 23-328)
T1 construct: also called 40 kD subunit; NKSF heavy chain
T1 sequence: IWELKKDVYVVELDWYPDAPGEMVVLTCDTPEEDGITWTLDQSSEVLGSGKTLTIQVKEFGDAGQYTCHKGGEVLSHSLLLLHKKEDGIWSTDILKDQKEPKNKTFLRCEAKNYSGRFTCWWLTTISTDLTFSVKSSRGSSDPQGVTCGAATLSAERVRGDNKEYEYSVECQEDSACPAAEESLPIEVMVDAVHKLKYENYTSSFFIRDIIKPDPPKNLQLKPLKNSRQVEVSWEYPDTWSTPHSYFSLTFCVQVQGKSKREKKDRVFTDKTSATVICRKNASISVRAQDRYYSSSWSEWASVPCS
Test: SDS-PAGE of the iodinated 70 kD species, non-reduced against reduced with β-mercaptoethanol
Description: SDS-PAGE was performed according to the method of Laemmli [Laemmli, U. K., *Nature*, 227:680–685 (1970)] on 10% acrylamide slab gels (0.75 mm thickness). After electrophoresis the gels were either stained by the silver-nitrate method using a silver staining reagents [BioRad] or cut into 2 mm slices and eluted in 0.5 ml RPMI medium for 4 hours at 24° C. and assayed for NKSF activity. Apparent molecular weight was determined with protein standards, […] (94 kD), bovine serum albumin (67 kD), ovalbumin (43 kD), carbonic anhydrase (30 kD), soybean trypsin inhibitor (20 kD) and lactalbumin (14.4 kD).
The 70 kD species was eluted from the gel, iodinated using chloramine T [Sigma, St. Louis, Mo.] and rerun on a second SDS gel after boiling for two minutes in the presence of the reducing agent, β-mercaptoethanol (10%). […] Alternatively, NKSF may be a dimer formed by multiples of the larger or smaller subunits. The reduction of the native 70 kD NKSF appeared to destroy all of its ability to induce peripheral blood lymphocyte production of gamma interferon.

binding result: binds
B1: NKSF smaller subunit, 30-35 kD (other)
chain: RNLPVATPDPGMFPCLHHSQNLLRAVSNMLQKARQTLEFYPCTSEEIDHEDITKDKTSTVEACLPLELTKNESCLNSRETSFITNGSCLASRKTSFMMALCLSSIYEDLKMYQVEFKTMNAKLLMDPKRQIFLDQNMLAVIDELMQALNFNSETVPQKSSLEEPDFYKTKIKLCILLHAFRIRAVTIDRVMSYLNAS
notes: also called 30 kD subunit; 30 kD (smaller version)
